Source: paper PMC8602850

Target: gC1qR-ΔΔ, gC1qR deletion mutant that removed the flexible, negatively charged loops (UniProt Q07021)
Assay: SPR; gC1qR-WT or gC1qR-ΔΔ immobilised; two-fold dilution series of analyte injected; reference-corrected sensorgrams fit to kinetic models; apparent KD

gC1qR-ΔΔ, gC1qR deletion mutant that removed the flexible, negatively charged loops, sequence (Q07021 74-282, stated change not applied): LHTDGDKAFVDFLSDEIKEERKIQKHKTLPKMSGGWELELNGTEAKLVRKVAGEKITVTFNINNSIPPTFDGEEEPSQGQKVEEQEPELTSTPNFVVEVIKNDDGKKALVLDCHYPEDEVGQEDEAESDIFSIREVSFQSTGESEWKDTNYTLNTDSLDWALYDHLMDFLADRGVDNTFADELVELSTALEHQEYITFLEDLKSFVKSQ

In the case of “SARS-CoV-2 Membrane-Envelope fusion protein, recombinant”, the Kd is reported as 360 nM.
